Assay results: article PMC8309178, “Two Novel PET Radiopharmaceuticals for Endothelial Vascular Cell Adhesion Molecule-1 (VCAM-1) Targeting” (Pharmaceutics, 2021)
No end group written: not given here. *: point of attachment. maleimido‑mono‑amide‑DOTA = O=C(O)CN1CCN(CC(=O)O)CCN(CC(=O)NCCN2C(=O)CC(*)C2=O)CCN(CC(=O)O)CC1; NAM = N-norbiotinyl-β-maleimidopropionylamide, biotin derivative conjugated to Cys thiol

Assays:
[1] = biological target: T1, VCAM-1 expressed on HUVEC (Homo sapiens, UniProt P19320); assay: In vitro test of 68Ga-MacroP on HUVEC (LigandTracer radioactive uptake); format: cell-based; parameters: endogenous in cells; host or cells: primary HUVEC stimulated with 10 ng/mL TNF-alpha for 4 h; conditions: HUVEC activated with 10 ng/mL TNF-α for 4 h vs unstimulated HUVEC; 5 MBq 68Ga-MacroP in 3 mL saline; LigandTracer White
T1 sequence (P19320 25-739): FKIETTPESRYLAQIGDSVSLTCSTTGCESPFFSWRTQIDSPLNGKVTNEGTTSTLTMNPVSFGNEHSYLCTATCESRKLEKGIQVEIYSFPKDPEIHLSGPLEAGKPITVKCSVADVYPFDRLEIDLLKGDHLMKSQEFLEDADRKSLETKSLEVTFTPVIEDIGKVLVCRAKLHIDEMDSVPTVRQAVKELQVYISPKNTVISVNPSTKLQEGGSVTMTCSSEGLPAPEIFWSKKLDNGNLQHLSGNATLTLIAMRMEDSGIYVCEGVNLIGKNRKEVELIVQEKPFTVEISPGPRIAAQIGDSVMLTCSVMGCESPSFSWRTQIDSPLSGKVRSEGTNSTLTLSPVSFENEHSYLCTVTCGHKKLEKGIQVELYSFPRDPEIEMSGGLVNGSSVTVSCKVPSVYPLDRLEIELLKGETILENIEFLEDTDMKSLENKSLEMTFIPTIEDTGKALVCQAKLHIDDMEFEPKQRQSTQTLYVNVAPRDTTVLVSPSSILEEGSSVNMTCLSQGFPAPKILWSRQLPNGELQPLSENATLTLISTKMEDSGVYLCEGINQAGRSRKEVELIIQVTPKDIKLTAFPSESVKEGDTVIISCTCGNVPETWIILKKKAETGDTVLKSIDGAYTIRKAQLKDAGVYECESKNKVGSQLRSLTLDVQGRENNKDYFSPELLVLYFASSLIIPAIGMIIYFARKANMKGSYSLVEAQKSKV
Text: (§1) Human Umbilical Vein Endothelial Cells (HUVEC) were obtained from human umbilical cords collected from full-term women immediately after cesarean section at the Gynecology and Obstetrics Department of International Evangelical Hospital in Genoa (Italy), after patients’ informed consent and the approval (register number 2/2010-19, February, 2010) by the Institutional Ethical Committee. Each cord vein was individually processed for obtaining endothelial cells through mechanical dissociation of the tissue and collagenase digestion. Cells were maintained in culture medium EndoGRO-LS Complete Culture Media Kit seeded on attachment factor-coated plates. For labeling experiments, 8 × 10^5 cells were plated on Petri dishes in EndoGRO Basal Medium (SCME-BM) and allowed to attach overnight prior stimulation with 10 ng/mL of TNF-alpha (TNF-α) for 4 h. Cells without TNF-α treatment were used as control (Figures S19 and S20).
The binding assay of ^68Ga-MacroP with VCAM-1 expressed on HUVEC was monitored using LigandTracer® White (Ridgeview Instruments AB, Uppsala, Sweden) according to our previously validated procedure. Briefly, the tool consists of a beta-emission detector and a rotating platform harboring a standard Petri dish. […] The binding of radioactivity to cell-containing areas and reference areas was recorded. […]

[2] = biological target: T1, VCAM-1 expressed on HUVEC; assay: In vitro test of NAMP-avidin-68Ga-BisDOTA on HUVEC (three-step pretargeting, LigandTracer); format: cell-based; parameters: endogenous in cells; host or cells: primary HUVEC stimulated with TNF-alpha
Text: as §1, with “Cells without TNF-α treatment were used as control (Figures S19 and S20).” left out
After removing the culture medium containing TNF-α, stimulated HUVEC were incubated at 37 °C with 4 nmol of NAMP for 20 min and afterwards with 3.5 nmol of NeutrAvidin™ for 10 min. After washing and replacing the culture medium with 3 mL of the saline solution containing 5MBq of ^68Ga-BisDOTA (specific activity 37.0 MBq/nmol), the binding assay of ^68Ga-BisDOTA with the NAMP-avidin complex, bound to the VCAM-1 expressed on HUVEC, was monitored using the same procedure described in Section 2.3.5.

avidin = avidin (Gallus gallus, UniProt P02701); assay: NAMP-avidin binding (ultrafiltration, RP-HPLC, capillary electrophoresis); conditions: approx. 0.17 mM NAMP with avidin 2.5 μg/μL, 37 °C, 2 h; 30 kD cut-off ultrafiltration; RP-HPLC of ultrafiltrate, capillary electrophoresis of retentate
Chain of avidin (P02701 25-152, species assumed): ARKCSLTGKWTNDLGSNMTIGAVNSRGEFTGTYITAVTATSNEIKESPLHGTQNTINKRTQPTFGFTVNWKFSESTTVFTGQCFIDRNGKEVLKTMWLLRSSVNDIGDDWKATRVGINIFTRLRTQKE
Description: Avidin was dissolved in ultrapure water (2.5 μg/μL). This solution (100 μL) was mixed with a NAMP solution (approx. 0.17 mM) and heated at 37 °C under 400 rpm orbital shaking for 2 h. The mixture was placed in an ultrafiltration system with a regenerated cellulose membrane (30 kD cut-off), and washed with 250 μL of ultrapure water at 1400 g for 20 min at 15 °C. By inverted spinning at 1000 g for 3 min, the retentate was recovered and analyzed by capillary electrophoresis (Agilent Technologies 7100 Capillary Electrophoresis, Santa Clara, CA, USA). Separations were performed in a bare fused-silica capillary 50 μm (i.d.) × 64.5 cm (L) × 50 cm (L), activated with 1 M aqueous NaOH, 0.1 M aqueous NaOH and washed with ultrapure water. The conditioning and the run were carried out with 50 mM sodium phosphate buffer (pH 2.5), used also for 120 s preconditioning before injection. The gradient voltage was from 0 to 30 kV in 0.2 min.

[3] = deglycosylated form of avidin; cited from earlier work
Description: After radiolabeling with ^68Ga, both MacroP and NAMP were tested on human endothelial cells. Quantitative PCR and Fluorescence-Activated Cell Sorting (FACS) analysis were performed prior to the experiments, to assess the expression of VCAM-1 on HUVEC. To avoid excessive stress for the cells, they were activated with TNF-α for 4 h only. In the three-step pretargeting test, a commercially available deglycosylated form of avidin (NeutrAvidin™) was employed because it is characterized by reduced non-specific binding, low isoelectric point (~6.3) and low production cost with respect to ...

## MacroP: reaction product of maleimido-mono-amide-DOTA with the cysteine thiol of the VCAM-1-binding peptide VHPKQHRGGSKGC (VHPKQHRGGSKGC(maleimido‑mono‑amide‑DOTA))
[1]
  radiosignal uptake of activated cells compared to control cells: 4 fold

## NAMP: biotin derivative: NAM (N-norbiotinyl-β-maleimidopropionylamide) conjugated to the cysteine thiol of VHPKQHRGGSKGC, for three-step pretargeting (VHPKQHRGGSKGC(NAM))
[2]; HUVEC activated with 10 ng/mL TNF-α for 4 h vs unstimulated, 4 nmol NAMP 20 min at 37 °C, 3.5 nmol NeutrAvidin 10 min, then 5 MBq 68Ga-BisDOTA in 3 mL saline
  radioactive uptake of activated cells compared to the controls: 12 fold
[2]; TNF-α activated HUVEC vs control, NAMP, then NeutrAvidin and 68Ga-BisDOTA, p < 0.05
  uptake of radioactivity, activated cells versus control cells (in words): evidently higher uptake of radioactivity compared to the control cells
avidin
  avidin binding: unbound NAMP in the ultrafiltrate: no unbound NAMP could be detected

## NeutrAvidin™: commercially available deglycosylated form of avidin
[3]
  isoelectric point: ~ 6.3
